Measurements published in publication doi:10.1101/2023.04.26.538370.

Columns and labels:
[1] = target: microtubules (MTs) of cultured rat hippocampal neurons (rat (endogenous in hippocampal neurons)) (UniProt P68370); assay: FRAP fitted with a reaction-diffusion simulation
[2] = target: microtubules (MTs) of cultured rat hippocampal neurons (rat (endogenous in hippocampal neurons)) (UniProt P68370); assay: FRAP fitted with a reaction-diffusion-advection simulation
[3] = target: microtubules (MTs) of cultured rat hippocampal neurons (rat (endogenous in hippocampal neurons)) (UniProt P68370); assay: FRAP fitted with a reaction-diffusion simulation; remark: listed apart in the source

| Substance | Kd [1] [nM] | Kd [2] [nM] | Kd [3] [nM] |
| --- | --- | --- | --- |
| GFP-MAP2B expressed in cultured rat hippocampal neurons (from UniProt P11137-1 1-1827) (natural protein) | 1000 |  |  |
| GFP-MAP2C, wild type (pAcGFP-His-MAP2C), expressed in cultured rat hippocampal neurons (from UniProt P11137-2 1-471) (natural protein) | 4500 | 3000 | 1000 |
